Reference: US20240117043A1 (SHANGHAI JUNSHI BIOSCIENCES, published 2024)

Assays:
[1] = molecular target: T1, recombinant human TIGIT (His Tag) (human, UniProt Q495A1 22-141); test: ELISA, plate coated with recombinant human TIGIT (His Tag), detection with HRP anti-human IgG4 Fc; unit taken from the concentration axis [2b]
T1 construct: Coated antigen of the ELISA; not shown: His tag
T1 sequence (looked up): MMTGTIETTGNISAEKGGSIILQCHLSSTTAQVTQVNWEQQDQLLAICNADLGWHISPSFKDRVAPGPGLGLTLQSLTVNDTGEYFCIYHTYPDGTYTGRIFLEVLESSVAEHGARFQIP
Procedure: (§1) 2. Procedures [0241] a. A 96-well plate was coated with 1.5 μg/mL recombinant human TIGIT (His Tag) (Suzhou Junmeng) as the antigen at 100 μL/well and incubated at 37° C. for 1.5 h. [0242] b. The plate was washed 4 times with 300 μL/well 1×PBST, and 2% BSA was added at 200 μL/well. The plate was blocked at 37° C. for 1.5 h. [0243] c. The plate was washed 4 times with 300 μL/well 1×PBST, and serial dilutions of the bispecific antibodies JS-1,3,5,9 and a negative control: antibody (anti-KLH hIgG4) (initial concentration 1.0 μg/mL, 3-fold serially diluted to 12 concentration points, 100 μL/well) were added. The plate was incubated at 37° C. for 1 h. [0244] d. The plate was washed 4 times with 300 μL/well 1×PBST. [0245] e. 5000-fold diluted horseradish peroxidase (HRP)-conjugated mouse anti-human IgG4 Fc antibody (Southern Biotech, 9200-05) was added at 100 μL/well, and the plate was incubated at 37° C. for 1 h. […] The plate was washed 4 times with 300 μL/well 1×PBST. [0247] g. 0.1 mg/mL TMB was added at 100 μL/well, and after the plate was incubated at 37° C. for 15 min, a 2 M solution of hydrochloric acid was added at 100 μL/well to stop the reactions. [0248] h. The absorbance was measured at 450 nm/620 nm on a microplate reader, and data were analyzed using Graphpad Prism7.

[2] = molecular target: T2, human TIGIT on the surface of Jurkat-hTIGIT cells (human, UniProt Q495A1 22-244); test: flow cytometry, blocking of 1 ug/mL PVR-mFc binding to Jurkat-hTIGIT cells
T2 construct: whole, on cells; also called human TIGIT on the surface of Jurkat cells
T2 sequence (looked up): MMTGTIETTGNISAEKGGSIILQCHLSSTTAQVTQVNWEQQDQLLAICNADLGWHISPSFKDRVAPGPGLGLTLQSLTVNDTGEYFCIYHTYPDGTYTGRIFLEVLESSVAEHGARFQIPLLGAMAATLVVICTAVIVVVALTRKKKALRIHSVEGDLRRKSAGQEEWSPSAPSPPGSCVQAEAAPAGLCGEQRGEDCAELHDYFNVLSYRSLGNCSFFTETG
Procedure: Jurkat-hTIGIT cells (human T lymphocytes, human TIGIT positive) were incubated with different concentrations of the bispecific antibodies JS-1, JS-3, JS-5 and JS-9 and 1 μg/mL human PVR-mFc protein at 4° C. for 30 min, then washed and incubated with a fluorescence-labeled anti-mouse IgG secondary antibody (1:200) in a dark place at 4° C. for 30 min. Finally, the cells were collected using a flow cytometer (BD Canto II), and the fluorescent antibodies bound to the cell surface were detected. Raw data were analyzed using FlowJo to obtain MFI values, antibody dose-dependent binding curves (FIG. 4) were fitted using GraphPad, and IC50 was calculated. The positive controls were hu20 (a recombinant humanized anti-TIGIT monoclonal antibody) and JS-Ref (Hengrui) (an anti-TIGIT/CD112R bispecific antibody of Hengrui, expressed and purified according to the sequence of the patent WO2021180205), and the negative control was an anti-KLH-hIgG4 antibody.

[3] = molecular target: T1, recombinant human TIGIT (His Tag); test: ELISA, plate coated with recombinant human TIGIT (His Tag), detection with HRP anti-human IgG4 Fc; unit taken from the concentration axis [2a]
Procedure: as §1

human CD112R-mFc protein = molecular target: T3, human CD112R-mFc protein (human, UniProt Q6DKI7 41-171, limits assumed); test: flow cytometry, blocking of 1 ug/mL CD112R-mFc binding to CHO hCD112 cells
T3 construct: also called human CD112R protein; not shown: mouse Fc (mFc)
T3 sequence (looked up): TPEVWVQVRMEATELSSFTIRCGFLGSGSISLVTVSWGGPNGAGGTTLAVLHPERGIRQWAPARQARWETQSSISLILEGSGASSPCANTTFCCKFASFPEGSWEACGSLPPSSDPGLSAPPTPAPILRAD
Procedure: CHO hCD112 cells (Chinese hamster ovary cells, human CD112 positive) were incubated with different concentrations of the bispecific antibodies JS-1, JS-3, JS-5 and JS-9 and 1 μg/mL human CD112R-mFc protein at 4° C. for 30 min, then washed twice and incubated with a fluorescence-labeled anti-mouse IgG secondary antibody (1:200) in a dark place at 4° C. for 30 min. Finally, the cells were collected using a flow cytometer (BD Canto II), and the fluorescent antibodies bound to the cell surface were detected. Raw data were analyzed using FlowJo to obtain MFI values, antibody dose-dependent binding curves (FIG. 4) were fitted using GraphPad, and IC50 was calculated. The positive controls were hu52 (a recombinant humanized anti-CD112R monoclonal antibody) and JS-Ref (Hengrui) (an anti-TIGIT/CD112R bispecific antibody of Hengrui, expressed and purified according to the sequence of the patent WO2021180205), and the negative control was an anti-KLH-hIgG1 antibody.

[4] = molecular target: T4, recombinant human HX1 hCD112R Fc (human, UniProt Q6DKI7 41-171, limits assumed); test: ELISA, plate coated with recombinant human HX1 hCD112R Fc, detection with HRP anti-human IgG4 Fc; unit taken from the concentration axis [3b]
T4 construct: Coated antigen of the ELISA (Suzhou Junmeng); also called human CD112R; not shown: Fc part
T4 sequence (looked up): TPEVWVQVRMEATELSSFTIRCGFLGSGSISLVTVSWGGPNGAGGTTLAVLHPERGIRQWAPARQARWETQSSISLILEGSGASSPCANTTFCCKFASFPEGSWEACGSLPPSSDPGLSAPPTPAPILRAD
Procedure: (§2) 2. Procedures [0255] a. A 96-well plate was coated with 1.0 μg/mL recombinant human HX1 hCD112R Fc (Suzhou Junmeng) as the antigen at 100 μL/well and incubated at 37° C. for 1.5 h. [0256] b. The plate was washed 4 times with 300 μL/well 1×PBST, and 2% BSA was added at 200 μL/well. The plate was blocked at 37° C. for 1.5 h. [0257] c. The plate was washed 4 times with 300 μL/well 1×PBST, and serial dilutions of the bispecific antibodies JS-1,3,5,9 and a negative control: antibody (anti-KLH hIgG4) (initial concentration 3.0 μg/mL, 3-fold serially diluted to 12 concentration points, 100 μL/well) were added. The plate was incubated at 37° C. for 1 h. [0258] d. The plate was washed 4 times with 300 μL/well 1×PBST. [0259] e. 5000-fold diluted horseradish peroxidase (HRP)-conjugated mouse anti-human IgG4 Fc antibody (Southern Biotech, 9200-05) was added at 100 μL/well, and the plate was incubated at 37° C. for 1 h. [0260] f. The plate was washed 4 times with 300 μL/well 1×PBST. [0261] g. 0.1 mg/mL TMB was added at 100 μL/well, and after the plate was incubated at 37° C. for 15 min, a 2 M solution of hydrochloric acid was added at 100 μL/well to stop the reactions. […] The absorbance was measured at 450 nm/620 nm on a microplate reader, and data were analyzed using Graphpad Prism7.

[5] = molecular target: T4, recombinant human HX1 hCD112R Fc; test: ELISA, plate coated with recombinant human HX1 hCD112R Fc, detection with HRP anti-human IgG4 Fc; unit taken from the concentration axis [3a]
Procedure: as §2

B1: hu20 (a recombinant humanized anti-TIGIT monoclonal antibody) (antibody, V domains shown)
VH: QVQLVQSGAEVKKPGASVKVSCKTSGYAFTEYTMHWVRQAPGKGLEWMGGINPNTGGTTYNQKFQGRVTLTVDKSSSTAYMELSSLRSEDTVVYYCAKLLRLMYYFDYWGQGTLVTVSS
VL: DIQMTQSPSSLSASVGDRVTITCQASQDVRTAVAWYQQKPGKAPKLLIYSASYRYTGVPSRFSGSGSGTDFTFTISSLQPEDIATYYCHQHYITPWTFGGGTKVEIKR
notes: vector hu20-2O18HC-3; also called hu20 mAb; anti-TIGIT antibody; not shown: heavy chain constant region
B1 showed an EC50 [1] of 6.63 ng/mL, an IC50 [2] of 1.98 nM and an EC50 [3] of 20.9 ng/mL.

B2: hu52 (a recombinant humanized anti-CD112R monoclonal antibody) (antibody, human IgG4 S228P, kappa, V domains shown)
VH: EVQLVESGGGLVKPGGSLRLSCAASGFTFSSYHMSWVRQAPGKGLELVSAINSNGINTYYLDTVKGRFTISRDNAKNSLYLQMNSLRAEDTAVYYCARHEDYYGFAMDYWGQGTLVTVSS
VL: DIVMTQSPDSLAVSLGERATINCKASQSVSNDVAWYQQKPGQPPKLLIYYVSHRFTGVPDRFSGSGSGTDFTLTISSLQAEDVAVYFCHQAYRSPWTFGQGTKLEIKR
notes: also called hu52 mAb; anti-CD112R antibody
B2 showed an IC50 (human CD112R-mFc protein) of 0.601 nM, an EC50 [4] of 2.62 ng/mL and an EC50 [5] of 2.46 ng/mL.
